Experimental data as given in paper PMC12585912, “Solution structure of the Sox2 DNA-binding domain reveals conformational selection in DNA binding”.

Molecular target: Sox2(24-118) DBD (UniProt P48431 24-118)
Experiment: NMR titration; 0.5 M ionic strength; specific binding in slow exchange, nonspecific mode reduced; 20 mM Tris, 135 mM KCl, 15 mM NaCl, pH 7.3 (NMR: 10% D2O, 0.01% NaN3, 293 K; nanoDSF: 25 uM protein, 1 mM DTT in protein/DNA buffer, 288-368 K at 1 K/min)
Conditions: protein: recombinant; tags: N-terminal T7-tag; blunt

Chain of Sox2(24-118) DBD (P48431 24-118): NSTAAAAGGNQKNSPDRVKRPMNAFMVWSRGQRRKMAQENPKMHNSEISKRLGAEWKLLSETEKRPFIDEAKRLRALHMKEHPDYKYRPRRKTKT

B1: FGF4 DNA 13-mer (dsDNA)
DNA 1: ACTCTTTGTTCGA
DNA 2: TCGAACAAAGAGT
B1: binds.
